Reference: patent US5891661A, “Low temperature assay for active HCMV protease in dimeric form” (Merck & Co., Inc., priority 1997, dated 1999)

Key:
HCMV protease [1] = assay: Analytical centrifugation, velocity sedimentation of HCMV protease; type: physicochemical, human cytomegalovirus; settings: 20 mM (monomer equivalents), 20° C.
Excerpt: Analytical Centrifugation
The quaternary state of the HCMV protease was characterized by sedimentation velocity measurements. […] An approximate solution of the Lamm equation fits directly to the data to obtain the sedimentation coefficient, S20,w, the diffusion coefficient, D20,w, and by use of the Svedberg relation, the molecular weight. For both samples good fits are found for a single sedimenting species. In the absence of glycerol the molecular weight obtained is 29.7 kDa which is close to the molecular weight of a monomeric HCMV protease. […] The increase in S20,w and the decrease D20,w shown in Table 1 are both consistent with the existence of a stable dimeric protease in 20% glycerol.
^α Samples were loaded at 20 mM (monomer equivalents) and
sedimentation was conducted at 20° C. Data shown in brackets are
the 95% confidence limits.

HCMV protease [2] = assay: Dependence of protease specific activity on temperature, enzyme and glycerol concentrations (dilution); type: biochemical, human cytomegalovirus
Description: Dependence of Protease Specific Activity on Enzyme and Glycerol Concentrations
Dilution of a concentrated solution of HCMV protease produces a time-dependent change in activity to a new, lower level. The rate and extent of the change in protease activity is a function of temperature. […] At temperatures above 20° C., the change in activity (t1/2 ≤30 min) upon enzyme dilution is such that an accurate assessment of activity requires a rapid assay (ca. 1 min).
The specific activity of the HCMV protease increases at higher enzyme and glycerol concentrations. […] It can be shifted back to the higher activity seen for 20% glycerol by addition of an equal volume of buffer containing 30% glycerol to produce a solution containing 20% glycerol, followed by further incubation. Thus, the dependence of HCMV protease activity on enzyme and glycerol concentrations is reversible.
The dependence of HCMV protease activity on enzyme concentration can be interpreted in terms of a monomer-dimer equilibrium wherein only the dimeric form of the enzyme is active.

HCMV protease [3] = assay: Activity assay of eluted size exclusion peaks at 0° C.; type: biochemical, human cytomegalovirus
Description: Assignment of the early (55 kDa) and late (33 kDa) elution peaks in FIG. 1 as dimer and monomer, respectively, allows the estimation of a Kd for dimerization. […] The maximum fraction of dimeric protease extrapolated from FIG. 2 is 0.92. In separate experiments using protease at a loading concentration of 100 mM, the maximum fraction of dimeric protease is more than or equal to 0.95. […] The same analysis applied to enzyme pre-equilibrated in 10% glycerol produces a […]

HCMV protease [4] = assay: Kinetic assays of monomeric form; type: biochemical, human cytomegalovirus; settings: ambient or higher temperatures
Description: For this reason, the activity of this protease has been erroneously believed to be very low. […] This physiochemical phenomenon is governed by thermodynamic principles. Due to the high activation energy required for dissociation, the HCMV protease can be "frozen" in its active, dimeric form at about 0° C., thus enabling sensitive detection of inhibitors of this enzyme. […] The existence of the HCMV protease has been reported, e.g., see Pinko, et al., J. Biol. Chem. 270, 23634 (1995). Assays for the catalytic activity of this enzyme have been described, albeit the reported kinetic parameters were substantially lower than those measured by applicants. […] This approach affords an assay for the activity of the protease at low concentration (≤20 nM), thus permitting detection of weak inhibitors or strong inhibitors at low concentration.

wild-type HCMV protease = assay: Stability of purified wild-type enzyme at pH 5.5 and return of activity at pH 7.5; type: physicochemical, human cytomegalovirus
Description: The wild-type HCMV protease was purified similarly. To avoid self-proteolysis, the protein obtained from the first anion exchange step was folded and dialyzed as above, but in the absence of glycerol. The sample was then acidified to pH 5.5 with MES, applied to a cation exchange column in 50 mM MES, 1 mM EDTA, 1 mM DTT, pH 5.5, and eluted with a sodium chloride gradient. […] Enzyme preparations were greater than 95% pure by SDS PAGE and gave the expected amino acid analysis. The N-terminal 5 residues of both enzymes were MTMDE, showing retention but defonnylation of the initial N-formyl methionine. Electrospray mass spectrometry indicated a single species within 10 a.m.u. of the expected mass. The concentrations of stock enzyme solutions were determined by quantitative amino acid analysis.

**Q.** With “HCMV protease: N-terminal 256 amino acid protease domain of HCMV strain AD169, recombinantly expressed in E. coli” as the substance, how does the “diffusion coefficient D20,w” value (HCMV protease [1]; 0% glycerol) read?
**A.** 8.34 cm^2 10^7

**Q.** And the “sedimentation coefficient S20,w” value (HCMV protease [1]; 0% glycerol)?
**A.** 2.78 S

**Q.** And the “diffusion coefficient D20,w” value (HCMV protease [1]; 20% glycerol (v/v))?
**A.** 6.57 cm^2 10^7

**Q.** What about the “sedimentation coefficient S20,w” value (HCMV protease [1]; 20% glycerol (v/v)) of the same substance?
**A.** 3.59 S

**Q.** And the “change in protease activity upon dilution” value (HCMV protease [2]; 0° C.)?
**A.** no significant change is observable for a period of hours

**Q.** What about the “time for active form of the enzyme to reach equilibrium after dilution” value (HCMV protease [2]; 10% and 20% glycerol samples) of the same substance?
**A.** ≤ 1.5 h

**Q.** And the “activity in 10% glycerol compared with 20% glycerol” value (HCMV protease [2]; 10% vs 20% glycerol (v/v))?
**A.** lower than that incubated in 20% glycerol

**Q.** And the “decrease in protease activity upon dilution” value (HCMV protease [2]; 37° C.)?
**A.** occurs within minutes

**Q.** What about the “specific activity as enzyme concentration is lowered” value (HCMV protease [2]; after dilution, incubations of 1.5 hr and 3.5 hr) of the same substance?
**A.** tends toward zero as its concentration is lowered

**Q.** And the “t1/2 of change in activity upon enzyme dilution” value (HCMV protease [2]; temperatures above 20° C.)?
**A.** ≤ 30 min

**Q.** How did the “hydrolytic activity in eluted dimer peak” value (HCMV protease [3]) turn out when “dimer: early (55 kDa) elution peak of HCMV protease, dimeric form” was run?
**A.** more than 50 -fold of detectable levels

**Q.** Which “activity of monomeric form as gauged by kinetic assays” value (HCMV protease [4]) does the source give for “monomer: late (33 kDa) elution peak of HCMV protease, monomeric form” here?
**A.** inactive

**Q.** And the “activity in eluted monomer peak” value (HCMV protease [3])?
**A.** no detectable activity

**Q.** How did the “return of activity following dilution” value (wild-type HCMV protease; dilution from pH 5.5 to pH 7.5) turn out when “wild-type HCMV protease: recombinant wild-type HCMV protease” was run?
**A.** returned to full activity

**Q.** And the “stability of wild-type enzyme” value (wild-type HCMV protease; pH 5.5)?
**A.** stable at pH 5.5
